PMC10250220

What was measured:
[1] = target: Flag-tagged CTC1 ΔB (human) (UniProt Q2NKJ3); assay: co-IP
CTC1 V259M;STN1;TEN1 = CTC1 V259M;STN1;TEN1 (human?;human?;human?, UniProt Q2NKJ3;Q9H668;Q86WV5 1-1217;1-368;1-123, V259M||); assay: EMSA
CTC1 A227V;STN1;TEN1 = CTC1 A227V;STN1;TEN1 (human?;human?;human?, UniProt Q2NKJ3;Q9H668;Q86WV5 1-1217;1-368;1-123, A227V||); assay: EMSA
Chain of CTC1 A227V;STN1;TEN1 (Q2NKJ3 whole entry A227V, chain 1 of 3): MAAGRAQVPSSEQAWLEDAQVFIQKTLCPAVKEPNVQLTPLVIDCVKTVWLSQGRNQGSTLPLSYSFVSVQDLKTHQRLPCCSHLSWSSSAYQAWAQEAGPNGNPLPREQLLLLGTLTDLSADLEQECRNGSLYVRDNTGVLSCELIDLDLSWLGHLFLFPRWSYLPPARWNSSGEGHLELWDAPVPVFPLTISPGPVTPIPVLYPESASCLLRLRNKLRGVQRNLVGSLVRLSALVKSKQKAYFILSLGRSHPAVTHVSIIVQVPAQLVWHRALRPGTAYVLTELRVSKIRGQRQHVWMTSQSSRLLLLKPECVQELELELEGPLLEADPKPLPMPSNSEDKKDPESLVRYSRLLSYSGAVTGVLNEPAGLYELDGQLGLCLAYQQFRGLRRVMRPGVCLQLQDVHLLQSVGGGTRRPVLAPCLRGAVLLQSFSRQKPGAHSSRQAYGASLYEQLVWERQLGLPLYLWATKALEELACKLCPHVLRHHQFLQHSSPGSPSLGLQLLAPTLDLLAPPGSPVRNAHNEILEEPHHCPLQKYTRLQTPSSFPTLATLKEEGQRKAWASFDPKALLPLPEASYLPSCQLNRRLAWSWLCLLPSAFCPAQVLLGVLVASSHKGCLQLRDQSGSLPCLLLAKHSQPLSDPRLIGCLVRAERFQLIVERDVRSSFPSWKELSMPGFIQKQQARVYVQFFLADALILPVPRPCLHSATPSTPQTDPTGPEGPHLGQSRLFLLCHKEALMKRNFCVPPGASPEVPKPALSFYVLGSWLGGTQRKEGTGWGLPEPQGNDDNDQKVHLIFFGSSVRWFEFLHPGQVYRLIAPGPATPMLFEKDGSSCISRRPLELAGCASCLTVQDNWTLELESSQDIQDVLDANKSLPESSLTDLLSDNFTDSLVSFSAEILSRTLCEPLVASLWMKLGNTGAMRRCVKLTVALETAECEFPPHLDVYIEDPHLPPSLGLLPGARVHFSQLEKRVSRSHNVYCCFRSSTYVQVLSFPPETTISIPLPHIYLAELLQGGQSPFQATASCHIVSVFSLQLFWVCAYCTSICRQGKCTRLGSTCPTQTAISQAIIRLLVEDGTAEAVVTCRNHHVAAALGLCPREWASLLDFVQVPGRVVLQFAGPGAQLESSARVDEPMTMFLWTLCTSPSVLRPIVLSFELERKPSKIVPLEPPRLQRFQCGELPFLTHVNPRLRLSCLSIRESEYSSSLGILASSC
Chain of CTC1 A227V;STN1;TEN1 (Q9H668 whole entry, chain 2 of 3): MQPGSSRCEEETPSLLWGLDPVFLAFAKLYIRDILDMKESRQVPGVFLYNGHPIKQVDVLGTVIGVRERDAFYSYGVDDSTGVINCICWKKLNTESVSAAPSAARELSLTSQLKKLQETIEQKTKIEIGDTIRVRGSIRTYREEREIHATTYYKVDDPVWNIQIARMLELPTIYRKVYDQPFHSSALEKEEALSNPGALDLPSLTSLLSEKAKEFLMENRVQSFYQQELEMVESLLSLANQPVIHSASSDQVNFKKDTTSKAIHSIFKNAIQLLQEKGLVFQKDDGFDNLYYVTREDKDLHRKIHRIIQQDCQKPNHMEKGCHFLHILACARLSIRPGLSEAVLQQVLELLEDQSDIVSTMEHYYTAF
Chain of CTC1 A227V;STN1;TEN1 (Q86WV5 whole entry, chain 3 of 3): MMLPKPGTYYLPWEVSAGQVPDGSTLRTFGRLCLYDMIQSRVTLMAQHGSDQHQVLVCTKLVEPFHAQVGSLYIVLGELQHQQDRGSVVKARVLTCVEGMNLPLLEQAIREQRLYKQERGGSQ

Chain of CTC1 V259M;STN1;TEN1 (Q2NKJ3 whole entry V259M, chain 1 of 3): as the sequence (Q2NKJ3 whole entry A227V, chain 1 of 3) above, with V227A, V259M counted along it
Chain of CTC1 V259M;STN1;TEN1 (Q9H668 whole entry, chain 2 of 3): as the sequence (Q9H668 whole entry, chain 2 of 3) above
Chain of CTC1 V259M;STN1;TEN1 (Q86WV5 whole entry, chain 3 of 3): as the sequence (Q86WV5 whole entry, chain 3 of 3) above
Chain of Flag-tagged CTC1 ΔB (human) (Q2NKJ3 whole entry, stated change not applied): as the sequence (Q2NKJ3 whole entry A227V, chain 1 of 3) above, with V227A counted along it
Chain of Myc-tagged TPP1 (Q96AP0 whole entry): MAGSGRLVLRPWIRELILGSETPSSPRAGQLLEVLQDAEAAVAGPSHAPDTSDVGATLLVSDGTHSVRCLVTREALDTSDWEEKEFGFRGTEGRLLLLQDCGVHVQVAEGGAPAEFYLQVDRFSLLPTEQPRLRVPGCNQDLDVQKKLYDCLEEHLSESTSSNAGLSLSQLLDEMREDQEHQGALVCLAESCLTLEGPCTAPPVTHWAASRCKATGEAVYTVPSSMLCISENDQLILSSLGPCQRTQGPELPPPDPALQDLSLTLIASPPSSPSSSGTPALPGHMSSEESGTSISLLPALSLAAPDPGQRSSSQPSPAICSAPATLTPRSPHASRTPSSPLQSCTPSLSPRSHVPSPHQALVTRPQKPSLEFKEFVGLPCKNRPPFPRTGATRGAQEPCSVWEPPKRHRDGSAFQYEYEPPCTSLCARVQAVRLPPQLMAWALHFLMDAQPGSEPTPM

percent decrease of TPP1 co-immunoprecipitated, against WT CTC1 [1] [%] | Molecule | binding result (CTC1 V259M;STN1;TEN1) | binding result (CTC1 A227V;STN1;TEN1)
44 | Myc-tagged TPP1 (from UniProt Q96AP0 1-458) (natural protein) | – | –
– | GGTTAGGGTTAGGGTTAG (ssDNA) [Tel-18 CY7] | binds | binds
